Experimental data: PMC5616090

Columns and labels:
[1] = target: Tumor susceptibility gene-101 coiled coil domain (TSG101cc), residues 229-304 (human) (UniProt Q99816); experiment: differential scanning calorimetry
[2] = target: Tumor susceptibility gene-101 coiled coil domain (TSG101cc), residues 229-304 (human) (UniProt Q99816); experiment: circular dichroism thermal unfolding
[3] = tested on: Q99816; experiment: differential scanning calorimetry; settings: other: differential scanning calorimetry
[4] = tested on: Q99816; experiment: circular dichroism thermal unfolding; settings: other: circular dichroism thermal unfolding

Chain of Tumor susceptibility gene-101 coiled coil domain (TSG101cc), residues 229-304 (Q99816 2-390): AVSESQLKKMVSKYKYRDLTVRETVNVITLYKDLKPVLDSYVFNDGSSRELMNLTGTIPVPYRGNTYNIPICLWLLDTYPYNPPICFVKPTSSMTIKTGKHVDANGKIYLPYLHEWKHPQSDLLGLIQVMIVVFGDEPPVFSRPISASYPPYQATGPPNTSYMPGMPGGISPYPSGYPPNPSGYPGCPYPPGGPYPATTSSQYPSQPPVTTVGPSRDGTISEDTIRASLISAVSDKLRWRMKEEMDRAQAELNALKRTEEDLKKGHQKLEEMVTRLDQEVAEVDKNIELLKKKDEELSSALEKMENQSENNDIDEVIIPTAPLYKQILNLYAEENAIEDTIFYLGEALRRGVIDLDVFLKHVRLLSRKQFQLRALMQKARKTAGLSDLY

Row | stoichiometry N [1] | stoichiometry N [2] | Substance | dH (unfolding and dissociation of the tetramer, per mol of monomer) [3] | dH (unfolding and dissociation of the tetramer, per mol of monomer) [4]
1 | 4 | 4 | Tumor susceptibility gene-101 coiled coil domain (TSG101cc), residues 229-304 (from UniProt Q99816 229-304) (domain or fragment) |  | 
2 |  |  | Tumor susceptibility gene-101 coiled coil domain (TSG101cc), residues 229-304 | 45.6 kcal/mol | 56.5 kcal/mol
